# B1: recombinant His-tagged ABL1 (protein)
# chain: SPNYDKWEMERTDITMKHKLGGGQYGEVYEGVWKKYSLTVAVKTLKEDTMEVEEFLKEAAVMKEIKHPNLVQLLGVCTREPPFYIITEFMTYGNLLDYLRECNRQEVNAVVLLYMATQISSAMEYLEKKNFIHRDLAARNCLVGENHLVKVADFGLSRLMTGDTYTAHAGAKFPIKWTAPESLAYNKFSIKSDVWAFGVLLWEIATYGMSPYPGIDLSQVYELLEKDYRMERPEGCPEKVYELMRACWQWNPSDRPSFAEIHQAFETMFQESSISDEVEKELGK
# How the values were obtained:
# [1] = biological target: 3×-FLAG-RNF213
# [2] = biological target: 3×-FLAG-RNF213^Y1275F
# Sequence of 3×-FLAG-RNF213 (chain, as listed by the source): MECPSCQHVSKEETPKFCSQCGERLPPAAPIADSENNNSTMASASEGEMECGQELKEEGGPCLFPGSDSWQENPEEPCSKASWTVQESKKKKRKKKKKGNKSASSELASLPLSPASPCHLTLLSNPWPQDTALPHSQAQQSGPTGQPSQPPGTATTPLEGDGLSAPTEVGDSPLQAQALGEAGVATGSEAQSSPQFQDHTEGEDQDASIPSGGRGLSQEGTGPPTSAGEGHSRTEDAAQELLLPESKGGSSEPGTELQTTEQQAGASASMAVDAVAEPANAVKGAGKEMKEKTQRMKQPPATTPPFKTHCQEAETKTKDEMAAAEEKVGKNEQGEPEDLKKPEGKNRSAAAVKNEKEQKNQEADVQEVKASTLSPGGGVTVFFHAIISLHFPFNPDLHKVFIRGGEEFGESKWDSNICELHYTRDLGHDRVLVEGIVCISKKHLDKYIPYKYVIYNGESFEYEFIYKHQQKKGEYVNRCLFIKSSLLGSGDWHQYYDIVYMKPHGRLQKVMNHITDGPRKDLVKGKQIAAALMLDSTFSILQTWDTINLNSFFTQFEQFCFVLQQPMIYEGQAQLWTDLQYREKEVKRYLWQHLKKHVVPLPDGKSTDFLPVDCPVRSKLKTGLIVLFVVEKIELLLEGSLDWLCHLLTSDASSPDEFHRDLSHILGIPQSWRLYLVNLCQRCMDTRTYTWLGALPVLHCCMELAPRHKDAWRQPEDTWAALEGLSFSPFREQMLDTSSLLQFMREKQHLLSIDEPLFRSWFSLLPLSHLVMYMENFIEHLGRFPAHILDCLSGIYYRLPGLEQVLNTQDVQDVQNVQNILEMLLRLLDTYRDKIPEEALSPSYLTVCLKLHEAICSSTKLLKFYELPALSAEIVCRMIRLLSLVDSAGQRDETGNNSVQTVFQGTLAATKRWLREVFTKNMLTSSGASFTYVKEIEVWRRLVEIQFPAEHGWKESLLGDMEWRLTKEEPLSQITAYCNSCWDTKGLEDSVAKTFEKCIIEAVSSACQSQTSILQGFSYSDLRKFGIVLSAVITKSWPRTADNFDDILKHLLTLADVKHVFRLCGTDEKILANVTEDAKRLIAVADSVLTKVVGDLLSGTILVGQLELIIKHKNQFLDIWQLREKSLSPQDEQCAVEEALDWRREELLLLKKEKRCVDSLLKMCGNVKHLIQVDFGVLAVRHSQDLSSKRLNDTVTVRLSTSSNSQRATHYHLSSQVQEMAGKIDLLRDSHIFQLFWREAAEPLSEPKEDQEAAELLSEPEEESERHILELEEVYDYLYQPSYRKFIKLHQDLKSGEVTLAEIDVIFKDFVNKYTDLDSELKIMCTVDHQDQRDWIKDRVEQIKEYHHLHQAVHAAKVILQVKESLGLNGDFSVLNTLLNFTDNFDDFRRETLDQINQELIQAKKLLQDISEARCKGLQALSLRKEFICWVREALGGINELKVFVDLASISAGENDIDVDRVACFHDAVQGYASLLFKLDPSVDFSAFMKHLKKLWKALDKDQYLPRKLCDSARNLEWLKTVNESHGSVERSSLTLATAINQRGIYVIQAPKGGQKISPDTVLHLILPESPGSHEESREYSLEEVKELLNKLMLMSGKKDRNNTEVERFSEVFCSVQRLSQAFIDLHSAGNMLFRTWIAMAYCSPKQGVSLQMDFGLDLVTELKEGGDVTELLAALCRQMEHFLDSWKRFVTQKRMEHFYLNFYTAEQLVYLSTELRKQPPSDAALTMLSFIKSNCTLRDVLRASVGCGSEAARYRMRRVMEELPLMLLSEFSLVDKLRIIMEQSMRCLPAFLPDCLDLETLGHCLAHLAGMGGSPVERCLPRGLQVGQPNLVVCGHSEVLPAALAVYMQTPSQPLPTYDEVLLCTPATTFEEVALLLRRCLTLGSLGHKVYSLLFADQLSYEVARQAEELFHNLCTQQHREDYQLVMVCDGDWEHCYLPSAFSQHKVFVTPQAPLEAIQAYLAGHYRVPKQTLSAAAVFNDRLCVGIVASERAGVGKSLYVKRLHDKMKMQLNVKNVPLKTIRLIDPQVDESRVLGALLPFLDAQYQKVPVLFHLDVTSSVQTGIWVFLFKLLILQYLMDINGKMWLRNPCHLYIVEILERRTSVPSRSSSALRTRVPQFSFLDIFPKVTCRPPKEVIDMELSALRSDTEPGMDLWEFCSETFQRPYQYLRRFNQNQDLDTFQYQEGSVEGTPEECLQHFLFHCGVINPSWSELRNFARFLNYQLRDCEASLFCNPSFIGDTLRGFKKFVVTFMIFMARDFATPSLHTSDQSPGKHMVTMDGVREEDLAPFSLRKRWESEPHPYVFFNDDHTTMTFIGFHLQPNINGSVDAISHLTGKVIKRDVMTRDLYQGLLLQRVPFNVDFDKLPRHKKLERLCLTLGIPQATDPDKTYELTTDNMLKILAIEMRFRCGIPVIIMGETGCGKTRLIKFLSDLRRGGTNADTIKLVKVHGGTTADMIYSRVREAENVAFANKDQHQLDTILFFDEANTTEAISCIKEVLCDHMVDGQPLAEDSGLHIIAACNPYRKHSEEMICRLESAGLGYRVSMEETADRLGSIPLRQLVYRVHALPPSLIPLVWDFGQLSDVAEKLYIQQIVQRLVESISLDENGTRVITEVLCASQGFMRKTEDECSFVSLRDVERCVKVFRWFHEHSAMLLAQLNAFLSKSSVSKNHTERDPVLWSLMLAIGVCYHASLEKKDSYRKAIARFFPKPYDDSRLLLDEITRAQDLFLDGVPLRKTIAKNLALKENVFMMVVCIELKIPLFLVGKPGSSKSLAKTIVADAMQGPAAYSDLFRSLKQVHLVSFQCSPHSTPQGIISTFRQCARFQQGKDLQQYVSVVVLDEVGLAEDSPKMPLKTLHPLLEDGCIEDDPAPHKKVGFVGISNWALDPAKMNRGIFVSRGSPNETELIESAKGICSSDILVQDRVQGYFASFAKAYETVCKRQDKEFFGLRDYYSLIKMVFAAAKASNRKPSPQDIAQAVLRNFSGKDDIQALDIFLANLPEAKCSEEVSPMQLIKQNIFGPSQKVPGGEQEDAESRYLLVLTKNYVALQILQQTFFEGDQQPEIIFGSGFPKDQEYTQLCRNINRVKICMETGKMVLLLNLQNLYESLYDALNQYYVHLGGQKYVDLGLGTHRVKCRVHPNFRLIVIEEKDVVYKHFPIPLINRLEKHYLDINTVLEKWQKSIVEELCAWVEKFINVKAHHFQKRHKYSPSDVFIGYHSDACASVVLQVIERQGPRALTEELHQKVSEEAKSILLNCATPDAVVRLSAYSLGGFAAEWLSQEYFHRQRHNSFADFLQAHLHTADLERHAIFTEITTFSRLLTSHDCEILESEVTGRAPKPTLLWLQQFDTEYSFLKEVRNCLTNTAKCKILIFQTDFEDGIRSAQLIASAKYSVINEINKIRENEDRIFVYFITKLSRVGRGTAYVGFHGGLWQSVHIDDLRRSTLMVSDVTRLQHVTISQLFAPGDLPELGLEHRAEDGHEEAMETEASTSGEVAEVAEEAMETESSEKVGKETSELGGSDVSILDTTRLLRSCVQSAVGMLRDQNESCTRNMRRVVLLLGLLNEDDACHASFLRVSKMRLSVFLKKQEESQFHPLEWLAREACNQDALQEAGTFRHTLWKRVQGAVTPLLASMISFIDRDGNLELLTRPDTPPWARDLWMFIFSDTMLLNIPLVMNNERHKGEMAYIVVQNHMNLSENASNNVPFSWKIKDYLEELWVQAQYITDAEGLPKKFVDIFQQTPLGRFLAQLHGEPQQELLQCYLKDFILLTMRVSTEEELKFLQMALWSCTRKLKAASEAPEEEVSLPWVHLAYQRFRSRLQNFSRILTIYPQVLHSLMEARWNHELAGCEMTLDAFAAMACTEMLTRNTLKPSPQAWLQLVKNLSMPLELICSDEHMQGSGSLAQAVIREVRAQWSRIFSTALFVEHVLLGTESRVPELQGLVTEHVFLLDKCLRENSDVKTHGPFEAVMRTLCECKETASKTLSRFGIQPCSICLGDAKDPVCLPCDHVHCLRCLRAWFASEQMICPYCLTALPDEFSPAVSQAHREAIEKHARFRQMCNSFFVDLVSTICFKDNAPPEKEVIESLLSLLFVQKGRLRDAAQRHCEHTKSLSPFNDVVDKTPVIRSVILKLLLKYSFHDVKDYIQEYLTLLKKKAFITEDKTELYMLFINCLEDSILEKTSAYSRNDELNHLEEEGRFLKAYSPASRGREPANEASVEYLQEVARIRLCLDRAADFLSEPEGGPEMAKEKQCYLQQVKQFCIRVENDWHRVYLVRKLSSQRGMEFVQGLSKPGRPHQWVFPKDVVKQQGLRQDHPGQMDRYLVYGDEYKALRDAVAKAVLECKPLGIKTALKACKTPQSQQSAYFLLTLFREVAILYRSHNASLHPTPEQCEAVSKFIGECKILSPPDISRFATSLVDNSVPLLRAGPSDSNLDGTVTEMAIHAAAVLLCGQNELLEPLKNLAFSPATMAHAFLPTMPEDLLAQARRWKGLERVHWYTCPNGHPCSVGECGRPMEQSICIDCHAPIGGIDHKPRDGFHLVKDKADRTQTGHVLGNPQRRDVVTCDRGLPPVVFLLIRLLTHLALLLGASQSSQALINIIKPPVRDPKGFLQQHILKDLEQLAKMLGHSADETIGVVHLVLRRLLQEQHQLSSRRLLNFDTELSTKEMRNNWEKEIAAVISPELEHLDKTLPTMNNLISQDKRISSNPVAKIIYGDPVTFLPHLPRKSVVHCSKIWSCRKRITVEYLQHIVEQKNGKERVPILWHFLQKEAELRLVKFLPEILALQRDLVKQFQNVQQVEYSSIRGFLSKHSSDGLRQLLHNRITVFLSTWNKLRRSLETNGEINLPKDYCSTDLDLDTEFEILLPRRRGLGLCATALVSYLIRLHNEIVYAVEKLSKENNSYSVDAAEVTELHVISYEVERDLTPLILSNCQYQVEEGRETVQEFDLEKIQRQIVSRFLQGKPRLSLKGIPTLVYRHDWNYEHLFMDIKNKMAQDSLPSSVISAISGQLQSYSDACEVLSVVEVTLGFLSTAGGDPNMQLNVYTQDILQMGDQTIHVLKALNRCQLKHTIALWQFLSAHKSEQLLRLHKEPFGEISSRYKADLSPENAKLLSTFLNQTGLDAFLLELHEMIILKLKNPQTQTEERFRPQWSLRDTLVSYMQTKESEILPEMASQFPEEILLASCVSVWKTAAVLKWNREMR
protein,measurement,setting,value
B1,in vitro kinase assay (tyrosine phosphorylation),[1],"His-ABL1 phosphorylated WT-RNF213, but not RNF213^Y1275F in a time- and ABL1-concentration-dependent manner"
same,in vitro kinase assay (tyrosine phosphorylation),[2],"His-ABL1 phosphorylated WT-RNF213, but not RNF213^Y1275F"

# Reference: patent publication US20250025478
